# Results as given in US7786356B2, “Method for the production of calendic acid, a fatty acid containing delta 8,10,12 conjugated double bonds and related fatty acids having a modification at the delta 9 position” (E.I. du Pont de Nemours and Company, priority 1999, dated 2010).
# B1: CalFad2-1: Calendula officinalis fatty acid modifying enzyme (cDNA SEQ ID NO:1, protein SEQ ID NO:2) forming conjugated double bonds at delta-9 position (protein, listed as Calendula officinalis)
# chain: MGKGASNKKVLERVPITKPPFEYNDLKKAVPPHCFSRPLFRSFYFLLHDIIVTCILFYVASNYIPMLPGFLSYIVWPVYWISQGVFLGRLWMIGHECGHHSFSNYRWVDDSVGFLIHTATLTPYFSFKYSHRNHHAHTNSMEYDEVHIPKRKSEALDLYFEFLGNNPMGLMITMLCKLTFGYAAYIMFNYTGKKHKSGGLASHFYPQSPLFNDSERNHVLFSDVGICIVLYACYRIVMVTGAMSAFYVYGIPWVIMSAILFAATYLQHTHPSIPHYDTTEWNWLRGALSTIDRDLGFFNMNKTHYHVIHHLFPVIPEYHAQEATEAIKPILGQYYKYDGTPFLKALWREMKDCIYVESDQGQKKQGIYWFKNKI
# How the values were obtained:
# tobacco callus = experiment: Expression of CalFad2-1 in tobacco callus, GC/GC-MS of fatty acid methyl esters; type: cell-based, Nicotiana tabacum cv. Xanthi; details: stably transformed tobacco callus, 35S promoter
# From the text: To characterize the activity of the CalFad2-1 in transgenic plant cells, the cDNA (ecs1c.pk009.n14) encoding this enzyme was expressed in tobacco callus with the gene under control of the cauliflower mosaic virus 35S promoter. The open-reading frame of the cDNA for CalFad2-1 was amplified by PCR to generate flanking […] restriction enzyme sites for cloning into the plant expression vector. The sequence of the sense oligonucleotide used in the amplification reaction was 5′-tttgagctc[…]-3′ (SEQ ID NO:16), and the sequence of the antisense oligonucleotide was 5′-tttggatcc[…]-3′ (SEQ ID NO: 17) [Note: the bases in lower case contain the added restriction sites, which are underlined, and flanking sequence to facilitate restriction enzyme digestion]. The design of the PCR primers was based on the sequence of the CalFad2-1 cDNA shown in SEQ ID NO:1. […]
# Kanamycin-resistant tobacco callus that resulted from the transformation was examined for the presence of calendic acid arising from the activity of CalFad2-1. […] The recovered fatty acid methyl esters were then analyzed using a Hewlett-Packard 6890 chromatograph fitted with an Omegawax 320 column (30 m×0.32 mm inner diameter; Supelco). […] Fatty acid methyl prepared from the transgenic tobacco callus was analyzed with an HP6890 interfaced with a HP5973 (Hewlett-Packard) mass selective detector. […]
# [1] = system: Saccharomyces cerevisiae INVSc1 cells; experiment: Expression of CalFad2-1 and CalFad2-2 in Saccharomyces cerevisiae; type: cell-based; details: cells grown in media containing 2 mM linoleic acid, 4 days at 16° C.; (w/w) of total fatty acids
# From the text: The Calendula officinalis clones CalFad2-1 and CalFad2-2 were digested with the restriction enzymes EcoRI and XhoI. The resulting DNA fragments containing the entire cDNA inserts were purified by agarose gel electrophoresis. The purified cDNAs were ligated into the EcoRI and XhoI sites of the Saccharomyces cerevisiae expression vector pYES2 (Invitrogen) using T4 DNA ligase (New England Biolabs). The resulting plasmids pYes2/CalFad2-1 and pYes2/CalFad2-2 were introduced into Saccharomyces cerevisiae INVSc1 (Invitrogen Corp.) cells by lithium acetate-mediated transformation [Sherman F, Fink G R, Hicks J B, Methods in Yeast Genetics: A Laboratory Course Manual, Cold Spring Harbor Lab. Press, Plainview, N.Y. (1987)]. Transformed cells were selected for their ability to grow in the absence of uracil. […] In cells grown in media containing linoleic acid, calendic acid (18:3Δ^8trans,10trans,12cis) was detected in amounts of up to 2.9% (w/w) of the total fatty acids of cultures expressing CalFad2-1 (FIG. 3) and in amounts of up to 0.2% of the total fatty acids of cultures expressing CalFad2-2. […] No calendic acid was detected in cultures harboring the expression vector without a cDNA insert or in cells grown in the absence of exogenous linoleic acid. […]
molecule,measurement,setting,value
B1,"methyl calendic acid, amount of the total fatty acids",tobacco callus,up to 11.4 % of the total fatty acids
same,"calendic acid (18:3Δ8trans,10trans,12cis), amount of the total fatty acids",[1],up to 2.9%
